Tests used:
[1] = molecular target: WT murine C3b (mouse); assay: SPR; WT murine C3b amine coupled on a CM5 chip; 2-fold dilution series of the FH protein flowed over in duplicate, 30 µl/min; HBST (10 mM HEPES, 150 mM NaCl, 0.005% Tween 20, pH 7.4); steady-state model
[2] = molecular target: WT murine C3b (mouse)
[3] = molecular target: mouse homodimeric minimal factor H (mHDM-FH, mFH^1–5^18–20^R1–2) (mouse) (UniProt P06909); assay: SEC; analytical size exclusion gel filtration; elution volume compared with mFLFH and mini-mFH

Row | Kd [1] [nM] | stoichiometry N [3] | Substance | IC50 of protection of sheep erythrocytes from lysis by mouse serum (haemolysis assay) [2] [nM]
1 | 1700 | – | Mouse full length Factor H (mFLFH) (from UniProt P06909 19-1234) (natural protein) | –
2 | 500 | 2 | mouse homodimeric minimal factor H (mHDM-FH, mFH^1–5^18–20^R1–2) (from UniProt P06909 19-321; P06909 1050-1234; Q61406 24-152) | 8

— PMC8696033
